In patent US7485771B2, “Polypeptides and polynucleotides relating to the α- and β-subunits of glutamate dehydrogenases and methods of use” (University of Florida Research Foundation, Inc., priority 1995, dated 2009):
Like-named read-outs stand apart in the source and are kept apart here.

What was measured:
[1] = target: T1, Chlorella sorokiniana chloroplastic NADP-specific glutamate dehydrogenase (NADP-GDH) β-homohexamer, native (mature β-subunit SEQ ID NO. 26) (Chlorella sorokiniana, UniProt P28998, E496R/E82D/G270P/L83V); details: β-homohexamer purified from Chlorella cells (catabolic form), non-allosteric; read-out: ammonium Km; cited from earlier work
T1 construct: endogenous in cells; host or cells: Chlorella sorokiniana (UTEX-1230; 3B2NA), cells cultured in 1 mM or 29 mM ammonium medium; enzyme purified from the cells
T1 sequence (P28998 49-523 E82D/L83V/G270P/E496R): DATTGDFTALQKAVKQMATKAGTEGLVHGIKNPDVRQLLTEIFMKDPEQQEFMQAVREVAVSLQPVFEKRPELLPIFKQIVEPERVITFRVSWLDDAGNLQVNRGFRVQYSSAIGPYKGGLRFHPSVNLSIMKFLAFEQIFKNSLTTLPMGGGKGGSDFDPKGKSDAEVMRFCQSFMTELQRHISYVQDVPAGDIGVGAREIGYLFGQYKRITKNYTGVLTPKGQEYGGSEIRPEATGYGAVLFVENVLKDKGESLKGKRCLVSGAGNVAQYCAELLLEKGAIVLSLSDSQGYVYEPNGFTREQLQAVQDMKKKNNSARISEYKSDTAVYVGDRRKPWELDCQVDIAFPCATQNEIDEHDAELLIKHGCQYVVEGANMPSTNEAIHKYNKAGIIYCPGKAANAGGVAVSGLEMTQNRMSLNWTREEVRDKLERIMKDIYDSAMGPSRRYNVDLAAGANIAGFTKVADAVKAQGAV

[2] = target: T1, Chlorella sorokiniana chloroplastic NADP-specific glutamate dehydrogenase (NADP-GDH) β-homohexamer, native (mature β-subunit SEQ ID NO. 26); assay: Km values, aminating reaction, β-homohexameric isoenzyme; format: biochemical
Text: (§1) The chloroplastic glutamate dehydrogenase α- and β-isoenzymes used in the following experiments are naturally produced by an organism characterized as Chlorella sorokiniana.
(§2) C. sorokiniana culture conditions. For kinetic characterization in both the aminating and deaminating directions, the α- and β-holoenzymes were purified from cells that were accumulating only one form of homohexameric GDH isoenzyme.
(§3) The C. sorokiniana cells (UTEX-1230, University of Texas algal culture collection; 3B2NA, Robert R. Schmidt, University of Florida, Microbiology Cell Science Department) were cultured autotrophically as previously described by Prunkard et al., supra in a modified basal salts medium. […]
(§4) The NADP-GDH β-isoenzyme was purified from a mixture of cells cultured for 240 minutes in 1 mM ammonium medium (14 g), 90 minutes in 1 mM ammonium medium (6 g), and for 20, 40, 60, and 80 minutes in 29 mM ammonium medium (1 g/time point) according to Bascomb and Schmidt, supra. […] The NADP-GDH in the pooled fractions was concentrated via Diaflow ultrafiltration to 2 mg/ml protein, as determined by the method of Bradford (Bradford, M. M. [1976] Anal. Biochem. 72:248-254), and stored at 4° C. until further use. After resolution of the proteins by 8% (w/v) Tris-Tricine SDS-PAGE, the purity of the preparation was determined by silver staining. […]

[3] = target: T2, Chlorella sorokiniana chloroplastic NADP-specific glutamate dehydrogenase (NADP-GDH) α-homohexamer, native (mature α-subunit SEQ ID NO. 24) (Chlorella sorokiniana, UniProt P28998, E496R/E82D/G270P/L83V); assay: Km values, aminating reaction, α-homohexameric isoenzyme; format: biochemical; details: NH4^+ range, depending on the NADPH concentration (b9)
T2 construct: endogenous in cells; host or cells: Chlorella sorokiniana (UTEX-1230; 3B2NA), cultured in 29 mM ammonium medium; enzyme purified from the cells
T2 sequence (P28998 with tags, fused parts or gaps E82D/L83V/G270P/E496R): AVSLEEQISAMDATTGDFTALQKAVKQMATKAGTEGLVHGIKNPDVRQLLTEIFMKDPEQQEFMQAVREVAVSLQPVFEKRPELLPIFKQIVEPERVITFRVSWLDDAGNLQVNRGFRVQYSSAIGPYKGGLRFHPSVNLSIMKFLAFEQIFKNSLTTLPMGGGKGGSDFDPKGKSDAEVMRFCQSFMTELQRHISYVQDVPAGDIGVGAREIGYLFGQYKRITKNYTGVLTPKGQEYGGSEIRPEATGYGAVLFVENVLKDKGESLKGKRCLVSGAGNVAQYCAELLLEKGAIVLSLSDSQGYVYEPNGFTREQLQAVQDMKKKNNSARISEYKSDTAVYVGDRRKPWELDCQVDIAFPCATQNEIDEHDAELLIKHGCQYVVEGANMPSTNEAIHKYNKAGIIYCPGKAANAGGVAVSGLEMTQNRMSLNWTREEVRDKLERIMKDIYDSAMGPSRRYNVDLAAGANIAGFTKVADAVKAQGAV
Text: as §1, §2, §3
(§5) For preparative nondenaturing PAGE, a 3 cm tall 7% acrylamide (w/v, 28 acrylamide: 0.735 bis-acrylamide, pH 8.8) resolving gel, and a 2 cm tall 2% acrylamide (w/v, 1.6 acrylamide: 0.4 bis-acrylamide, pH 6.6) stacking gel were cast in the 28 mm ID gel tube of the Model 491 Prep Cell. […] The enzyme in the pooled fractions in 10 mM KPO4 (pH 6.2), 0.1 mM NADP^+ was concentrated by Diaflow ultrafiltration to 1 mg/mL as determined by the method of Bradford, using BSA as a standard. […] The purity of the preparation was determined by silver-staining to visualize proteins resolved by 10% (w/v) Tris-Tricine SDS-PAGE (Schagger, H., G. von Jagow [1987] Anal. Biochem. 166:368-379). […]

[4] = substrate: N[C@@H](CCC(=O)O)C(=O)O; assay: Km values, deaminating reaction, α-homohexameric isoenzyme; format: biochemical, Chlorella sorokiniana; details: other: α-homohexamer, 38.5 °C
Text: as §1, §2, §3, §5

[5] = substrate: NC(=O)c1ccc[n+]([C@@H]2O[C@H](COP(=O)([O-])OP(=O)(O)OC[C@H]3O[C@@H](n4cnc5c(N)ncnc54)[C@H](OP(=O)(O)O)[C@@H]3O)[C@@H](O)[C@H]2O)c1; assay: as above; format: biochemical, Chlorella sorokiniana; details: other: α-homohexamer, 38.5 °C
Text: as §1, §2, §3, §5

[6] = substrate: NC(=O)C1=CN([C@@H]2O[C@H](COP(=O)(O)OP(=O)(O)OC[C@H]3O[C@@H](n4cnc5c(N)ncnc54)[C@H](OP(=O)(O)O)[C@@H]3O)[C@@H](O)[C@H]2O)C=CC1; assay: Km values, aminating reaction, α-homohexameric isoenzyme; format: biochemical, Chlorella sorokiniana; details: other: α-homohexamer, 38.5 °C
Text: as §1, §2, §3, §5

[7] = substrate: O=C(O)CCC(=O)C(=O)O; assay: purified protein, by the assay type; details: other: β-homohexamer, aminating reaction; 38.5 °C
[8] = substrate: N[C@@H](CCC(=O)O)C(=O)O; assay: Km values, deaminating reaction, β-homohexameric isoenzyme; format: biochemical, Chlorella sorokiniana; details: other: β-homohexamer, 38.5 °C
Text: as §1, §2, §3, §4

[9] = substrate: NC(=O)c1ccc[n+]([C@@H]2O[C@H](COP(=O)([O-])OP(=O)(O)OC[C@H]3O[C@@H](n4cnc5c(N)ncnc54)[C@H](OP(=O)(O)O)[C@@H]3O)[C@@H](O)[C@H]2O)c1; assay: as above; format: biochemical, Chlorella sorokiniana; details: other: β-homohexamer, 38.5 °C
Text: as §1, §2, §3, §4

[10] = substrate: NC(=O)C1=CN([C@@H]2O[C@H](COP(=O)(O)OP(=O)(O)OC[C@H]3O[C@@H](n4cnc5c(N)ncnc54)[C@H](OP(=O)(O)O)[C@@H]3O)[C@@H](O)[C@H]2O)C=CC1; assay: Km values, aminating reaction, β-homohexameric isoenzyme; format: biochemical, Chlorella sorokiniana; details: other: β-homohexamer, 38.5 °C
Text: as §1, §2, §3, §4

## N [NH4^+, ammonium]
[1]
  Km: ~75 mM
[2]
  Km: 77 mM
[3]
  Km: 0.02 to 3.5 mM

B1: Chlorella sorokiniana chloroplastic NADP-specific glutamate dehydrogenase (NADP-GDH) α-homohexamer, native (mature α-subunit SEQ ID NO. 24) (Chlorella … (protein)
chain: T2 sequence (P28998 with tags, fused parts or gaps E82D/L83V/G270P/E496R)
notes: endogenous in cells; host or cells: Chlorella sorokiniana (UTEX-1230; 3B2NA), cultured in 29 mM ammonium medium; enzyme purified from the cells
[4]
  Km: 38.2 mM
[5]
  Km: 0.04 mM
[6]
  Km: 0.14 mM

B2: Chlorella sorokiniana chloroplastic NADP-specific glutamate dehydrogenase (NADP-GDH) β-homohexamer, native (mature β-subunit SEQ ID NO. 26) (Chlorella … (protein)
chain: T1 sequence (P28998 49-523 E82D/L83V/G270P/E496R)
notes: endogenous in cells; host or cells: Chlorella sorokiniana (UTEX-1230; 3B2NA), cells cultured in 1 mM or 29 mM ammonium medium; enzyme purified from the cells
[7]
  Km: 12 mM
[8]
  Km: 32.3 mM
[9]
  Km: 0.04 mM
[10]
  Km: 0.14 mM
